# Where two headings read alike, the source gives them in different places.
# Tests used:
# Type in all cases: cell-based
# [1] = test system: human umbilical vein endothelial cells (HUVEC); assay: Uptake of fluorophore-labeled milk exosomes into HUVECs; conditions: exosomal surface proteins removed with proteinase K, HUVEC
# [2] = test system: human colon carcinoma Caco-2 cells; design: exosome uptake: dose or concentration left out as unconfirmed
# Description: (§1) Caco-2 cells and IEC-6 cells were seeded at a density of 20,000 and 7000 cells/well, respectively, in 96-well plates, and allowed to adhere for 48 h, when cells were 75% confluent. The exosomes were labeled with the fluorophore, FM 4-64 (Molecular Probes). One microliter of a stock solution of FM 4-64 (5.9 mmol/L) was added to 1 mL of exosome suspension and incubated for 15 min at 37° C., and excess FM 4-64 was removed by ultracentrifugation at 120,000 3 g at 4° C. for 90 min. Transport studies were conducted using FM4-64-labeled exosomes using 3-110 mg of exosomal protein/well (Caco-2 cells) or 27-652 mg of exosomal protein/well (IEC-6 cells) and incubating cells for various periods of time to assess saturation kinetics; blanks were created using solvent. Assays were calibrated by quantifying the fluorescence of a known mass of exosomes labeled with FM 4-64. Exosome uptake was analyzed by measuring the cell fluorescence at 515 (excitation) and 640 nm (emission) using a Biotek FLx800 plate reader (BioTek Instru-ments). Fluorescence readings were corrected for cell autofluorescence by subtracting signals measured in cells incubated with exosome-depleted media. Transport kinetics was modeled using the Michaelis-Menten equation and nonlinear regression; modeling was conducted using GraphPad Prism 6.0 (GraphPad Software). In Caco-2 cells, exosome uptake was linear for up to 120 min if transport was measured using nonsaturating substrate concentrations (FIG. 33A): y=0.0012x+0.014 (r2=0.97; P<0.05). In IEC-6 cells exosome uptake was linear for only up to 60 min if transport was measured using nonsaturating substrate concentrations (FIG. 33B): y=0.0033x+0.033 (r2=0.75; P<0.05). Subsequent transport studies were conducted using incubation times of 8 hours for Caco-2 cells (FIG. 34B). Transport of milk exosome uptake was also studied in human umbilical vein endothelial cells (HUVECs) human small intestinal cells (FHs cells).
# In both mammalian cells, the uptake of bovine milk exosomes was mediated by saturable transport mechanisms. Transport kinetics was modeled using the Michaelis-Menten equation. Exosome uptake was analyzed by measuring the cell fluorescence at 515 (excitation) and 640 nm (emission) using a Biotek FLx800 plate reader (BioTek Instruments) as previously described above. […] When the incubation temperature was decreased from 37° C. to 4° C., the transport rate decreased from 100%+56% to 54%+13% using a substrate concentration of 55.5 μg exosomal protein/200 μL in Caco-2 cells (P<0.05; n=3). Likewise, when the incubation temperature was decreased from 37° C. to 4° C., the transport rate decreased from 100%+11% to 44%+25% using a substrate concentration of 153 μg exosomal protein/200 μL in IEC-6 cells (P<0.05; n=3). Subsequent transport studies were conducted using substrate concentrations of 55 μg/200 mL and 153 μg/200 mL in Caco-2 cells and IEC-6 cells, respectively. […] (N=3; p<0.05). […] FIGS. 37A and 37B show saturation kinetics of milk exosome uptake in human small intestinal cells (FHs cells).
# To remove surface protein from milk exosomes, the exosomes were subjected to various proteases, including trypsin, proteinase K, AspN, GluC, ArgC. […] Following protease treatment, the exosomes were subject to ultracentrifugation. The supernatant containing the enzyme cleaved surface peptides were identified using LC-MS/MS using LC/MS-MS and Mascot, and glycoproteins were identified using SwissProt. One way Anova and Bonferroni's Multiple comparison was used to test for statistical significance. The pellet containing the exosomes with its surface proteins removed was resuspended in 1×PBS and used for the transport studies shown in FIGS. 40-43.
# The uptake of bovine milk exosomes into human and rat intestinal cells depended on surface proteins in both exosomes and cells. Exosomes were treated with proteases as described above and depicted in FIG. 39. […]
# [3] = test system: human small intestinal cells (FHs cells); assay: Uptake of milk exosomes into FH cells (protease, glycosidase, lectin, sonication)
# [4] = test system: rat primary small intestinal IEC-6 cells; assay: Uptake of FM4-64-labeled milk exosomes into IEC-6 cells; conditions: exosomes treated with 0.105 mMol/L trypsin for 30 mins
# Description: as §1, with “Transport studies were conducted using FM4-64-labeled exosomes using 3-110 mg of exosomal protein/well (Caco-2 cells) or 27-652 mg of exosomal protein/well (IEC-6 cells) and incubating cells for various periods of time to assess saturation kinetics; blanks were created using solvent.” left out, “Transport kinetics was modeled using the Michaelis-Menten equation and nonlinear regression; modeling was conducted using GraphPad Prism 6.0 (GraphPad Software).” left out, “Subsequent transport studies were conducted using incubation times of 8 hours for Caco-2 cells (FIG. 34B). Transport of milk exosome uptake was also studied in human umbilical vein endothelial cells (HUVECs) human small intestinal cells (FHs cells).” left out
molecule,measurement,setting,value
"proteinase K: Non-specific protease used to remove surface proteins from exosomes or cells (protein, UniProt P06873 106-384, looked up) Proteinase K: AAQTNAPWGLARISSTSPGTSTYYYDESAGQGSCVYVIDTGIEASHPEFEGRAQMVKTYYYSSRDGNGHGTHCAGTVGSRTYGVAKKTQLFGVKVLDDNGSGQYSTIIAGMDFVASDKNNRNCPKGVVASLSLGGGYSSSVNSAAARLQSSGVMVAVAAGNNNADARNYSPASEPSVCTVGASDRYDRRSSFSNYGSVLDIFGPGTSILSTWIGGSTRSISGTSMATPHVAGLAAYLMTLGKTTAASACRYIADTANKGDLSNIPFGTVNLLAYNNYQA",exosome uptake,[1],50 % of controls
same,exosome uptake,[2]; CaCo2 cells treated with proteinase K,18%±16%
same,exosome uptake,[2]; exosomes treated with proteinase K,32%±25%
same,decrease of exosome uptake compared with controls,"[2]; removal of exosome and cell surface proteins, inhibition of endocytosis/vesicle trafficking, or of glycoprotein binding",61-85%
"PNA: Lectin binding Galβ1-3GalNAcα1-Ser/Thr (protein, UniProt P02872 24-273, looked up) Galactose-binding lectin: AETVSFNFNSFSEGNPAINFQGDVTVLSNGNIQLTNLNKVNSVGRVLYAMPVRIWSSATGNVASFLTSFSFEMKDIKDYDPADGIIFFIAPEDTQIPAGSIGGGTLGVSDTKGAGHFVGVEFDTYSNSEYNDPPTDHVGIDVNSVDSVKTVPWNSVSGAVVKVTVIYDSSTKTLSVAVTNDNGDITTIAQVVDLKAKLPERVKFGFSASGSLGGRQIHLIRSWSFTSTLITTTRRSIDNNEKKIMNMASA",effect on exosome uptake in FH cells,[3]; FH cells treated with the labelled agent,decreases the uptake
same,effect on exosome uptake in FH cells,[3]; exosomes treated with the labelled agent,decreases the uptake
"Arg-C: Cysteine protease cleaving at arginine and lysine (protein, UniProt P09870 51-181; P09870 191-526, looked up) Clostripain light chain: NKNQKVTIMYYCDADNNLEGSLLNDIEEMKTGYKDSPNLNLIALVDRSPRYSSDEKVLGEDFSDTRLYKIEHNKANRLDGKNEFPEISTTSKYEANMGDPEVLKKFIDYCKSNYEADKYVLIMANHGGGAR Clostripain heavy chain: AICWDDSNLDKNGEADCLYMGEISDHLTEKQSVDLLAFDACLMGTAEVAYQYRPGNGGFSADTLVASSPVVWGPGFKYDKIFDRIKAGGGTNNEDDLTLGGKEQNFDPATITNEQLGALFVEEQRDSTHANGRYDQHLSFYDLKKAESVKRAIDNLAVNLSNENKKSEIEKLRGSGIHTDLMHYFDEYSEGEWVEYPYFDVYDLCEKINKSENFSSKTKDLASNAMNKLNEMIVYSFGDPSNNFKEGKNGLSIFLPNGDKKYSTYYTSTKIPHWTMQSWYNSIDTVKYGLNPYGKLSWCKDGQDPEINKVGNWFELLDSWFDKTNDVTGGVNHYQW",effect on exosome uptake in Caco-2 cells,[2],significant decrease in exosome transport
"trypsin: Serine protease cleaving at lysine or arginine; applied to exosomes or cells (protein, UniProt P00761 9-231, looked up) Trypsin: IVGGYTCAANSIPYQVSLNSGSHFCGGSLINSQWVVSAAHCYKSRIQVRLGEHNIDVLEGNEQFINAAKIITHPNFNGNTLDNDIMLIKLSSPATLNSRVATVSLPRSCAAAGTECLISGWGNTKSSGSSYPSLLQCLKAPVLSDSSCKSSYPGQITGNMICVGFLEGGKDSCQGDSGGPVVCNGQLQGIVSWGYGCAQKNKPGVYTKVCNYVNWIQQTIAAN",exosome uptake,[4],82%±8%
same,effect on exosome uptake in Caco-2 cells,[2],significant decrease in exosome transport
same,transport rates (Vmax),"[2]; exosomes treated with the labelled protease, intestinal transport",40±0.6 arbitrary units

# Reference: patent US11883434B2, “Extracellular vesicles and methods of using” (NUtech Ventures, priority 2017, dated 2024)
